Binding result and Kd data for eleven molecules are collected here from patent US20220389118A1 (Chugai, published 2022).

Assay [1] addresses T1, soluble human IL-6 receptor (human, UniProt P08887 20-357).
T1 construct: also called hsIL-6R
T1 sequence: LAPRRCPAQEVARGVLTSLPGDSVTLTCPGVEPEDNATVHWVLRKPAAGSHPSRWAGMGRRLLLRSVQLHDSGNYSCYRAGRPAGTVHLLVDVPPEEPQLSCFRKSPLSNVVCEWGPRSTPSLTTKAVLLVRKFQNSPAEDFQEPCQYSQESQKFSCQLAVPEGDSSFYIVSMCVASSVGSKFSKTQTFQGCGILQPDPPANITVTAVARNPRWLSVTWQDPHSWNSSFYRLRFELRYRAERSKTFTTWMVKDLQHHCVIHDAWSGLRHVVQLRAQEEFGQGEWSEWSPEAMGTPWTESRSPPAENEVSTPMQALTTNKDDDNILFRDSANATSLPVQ
The experiment in a line: SPR (Biacore T100), antibody captured on a Protein A/G chip (CM5), human IL-6 receptor as analyte, 1.2 mM CaCl2, pH 7.4, 37 °C. The procedure: The interaction was analyzed in solutions at 1.2 mM and 3 μM calcium ion concentration, corresponding to high and low calcium ion concentration conditions, respectively. An appropriate amount of Protein A/G (Invitrogen) was immobilized onto a Sensor chip CM5 (GE Healthcare) by an amino coupling method, and antibodies of interest were captured onto the chip. The two types of running buffers used were: 20 mM ACES/150 mM NaCl/0.05% (w/v) Tween20/1.2 mM CaCl₂ (pH 7.4); and 20 mM ACES/150 mM NaCl/0.05% (w/v) Tween20/3 μM CaCl₂ (pH 7.4). These buffers were each used to dilute human IL-6 receptor. All measurements were carried out at 37° C.
Then, 10 mM glycine-HCl (pH 1.5) was injected at a flow rate of 30 μl/min for 30 seconds to regenerate the sensor chip.

Assay [2] concerns the target T2, human FcγRIIb extracellular domain with C-terminal His tag (human, UniProt P31994 43-217).
T2 construct: extracellular domain; also called FcgRIIb
T2 sequence (looked up): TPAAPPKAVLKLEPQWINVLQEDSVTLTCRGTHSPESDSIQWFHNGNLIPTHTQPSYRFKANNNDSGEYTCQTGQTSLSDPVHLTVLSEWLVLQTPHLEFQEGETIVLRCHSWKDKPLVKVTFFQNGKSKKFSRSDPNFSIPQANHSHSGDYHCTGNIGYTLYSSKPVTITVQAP
The experiment in a line: SPR (Biacore).

In assay [3] the target is T3, human FcγRIa extracellular domain with C-terminal His tag (human, UniProt P12314 16-292).
T3 construct: extracellular domain; also called FcgRIa
T3 sequence (P12314 16-292): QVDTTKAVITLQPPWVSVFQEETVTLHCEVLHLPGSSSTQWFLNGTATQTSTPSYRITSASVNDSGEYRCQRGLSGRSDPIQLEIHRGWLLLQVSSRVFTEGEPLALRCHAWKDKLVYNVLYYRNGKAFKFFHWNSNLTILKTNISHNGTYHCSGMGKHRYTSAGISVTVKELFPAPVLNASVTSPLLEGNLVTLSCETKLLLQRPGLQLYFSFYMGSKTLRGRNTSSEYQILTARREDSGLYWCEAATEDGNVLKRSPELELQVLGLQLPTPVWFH
As to the kind of experiment: SPR (Biacore).

For assay [4], the target named is T4, human FcγRIIa type H extracellular domain with C-terminal His tag (human, UniProt P12318 34-217).
T4 construct: extracellular domain; also called FcγRIIaH; FcgRIIaH
T4 sequence (looked up): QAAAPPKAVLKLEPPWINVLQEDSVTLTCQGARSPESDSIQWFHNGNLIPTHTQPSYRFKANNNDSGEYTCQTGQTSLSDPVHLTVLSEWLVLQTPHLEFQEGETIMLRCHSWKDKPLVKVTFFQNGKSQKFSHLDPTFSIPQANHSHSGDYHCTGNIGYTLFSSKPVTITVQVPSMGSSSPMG
As to the kind of experiment: SPR (Biacore).

Assay [5] concerns the target T5, human FcγRIIIa type V extracellular domain with C-terminal His tag (human, UniProt P08637 17-208).
T5 construct: extracellular domain; also called FcγRIIIaV; FcgRIIIaV
As to the kind of experiment: SPR (Biacore).

T5 sequence (P08637 17-208 F176V): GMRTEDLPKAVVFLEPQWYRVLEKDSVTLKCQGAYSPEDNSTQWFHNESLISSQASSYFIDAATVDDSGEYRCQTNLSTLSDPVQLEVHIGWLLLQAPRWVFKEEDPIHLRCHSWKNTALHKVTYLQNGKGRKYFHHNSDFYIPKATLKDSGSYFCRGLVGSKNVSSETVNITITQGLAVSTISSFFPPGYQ

B1: tocilizumab (antibody, human IgG1, kappa)
heavy: not shown
light: not shown
notes: also called anti-IL-6R antibody (tocilizumab)
In the case of B1, in assay [1], the binding result is recorded as “binds”.

B2: IL6R-2B261/IL6R-L (antibody, human IgG1, kappa)
heavy: QVQLQESGPGLVKPSETLSLTCAVSGHSISHDHAWSWVRQPPGEGLEWIGFISYSGITNYNPSLQGRVTISRDNSKNTLYLQMNSLRAEDTAVYYCARSLARTTAMDYWGEGTLVTVSSASTKGPSVFPLAPSSKSTSGGTAALGCLVKDYFPEPVTVSWNSGALTSGVHTFPAVLQSSGLYSLSSVVTVPSSSLGTQTYICNVNHKPSNTKVDKKVEPKSCDKTHTCPPCPAPDLLGGDSVFLFPPKPKDTLMISRTPEVTCVVVDVSHEDPEVKFNWYVDGVEVHNAKTKPREEQDNSTYRVVSVLTVLHQDWLNGKEYKCKVSNKALPAPIEKTISKAKGQPREPQVYTLPPSRDELTKNQVSLTCLVKGFYPSDIAVEWESNGQPENNYKTTPPVLDSDGSFFLYSKLTVDKSRWQQGNVFSCSVMHEALHNHYTQESLSLSP
light: not shown
notes: EU numbering; alterations on IL6R-B3; copies: 2 + 2
Take B2: the Kd was 1000 nM in assay [2] and 9 nM in assay [3].

B3: IL6R-BP148/IL6R-L (antibody, human IgG1, kappa)
heavy: QVQLQESGPGLVKPSETLSLTCAVSGHSISHDHAWSWVRQPPGEGLEWIGFISYSGITNYNPSLQGRVTISRDNSKNTLYLQMNSLRAEDTAVYYCARSLARTTAMDYWGEGTLVTVSSASTKGPSVFPLAPSSKSTSGGTAALGCLVKDYFPEPVTVSWNSGALTSGVHTFPAVLQSSGLYSLSSVVTVPSSSLGTQTYICNVNHKPSNTKVDKKVEPKSCDKTHTCPPCPAPDYLGDDSVFLFPPKPKDTLMISRTPEVTCVVVDVSHEDPEVKFNWYVDGVEVHNAKTKPREEQYNSTYRVVSVLTVLHQDWLNGKEYKCKVSNAALPKPIEKTISKAKGQPREPQVYTLPPSRDELTKNQVSLTCLVKGFYPSDIAVEWESNGQPENNYKTTPPVLDSDGSFFLYSKLTVDKSRWQQGNVFSCSVMHEALHNHYTQESLSLSP
light: not shown
notes: as for B2
As to B3, the figures for the Kd in assay [4] and in assay [5] were 7000 nM and 30000 nM, respectively.

B4: IL6R-BP182/IL6R-L (antibody, human IgG1, kappa)
heavy: QVQLQESGPGLVKPSETLSLTCAVSGHSISHDHAWSWVRQPPGEGLEWIGFISYSGITNYNPSLQGRVTISRDNSKNTLYLQMNSLRAEDTAVYYCARSLARTTAMDYWGEGTLVTVSSASTKGPSVFPLAPSSKSTSGGTAALGCLVKDYFPEPVTVSWNSGALTSGVHTFPAVLQSSGLYSLSSVVTVPSSSLGTQTYICNVNHKPSNTKVDKKVEPKSCDKTHTCPPCPAPDLLGGDSVFLFPPKPKDTLMISRTPEVTCVVVDVSHEDGEVKFNWYVDGVEVHNAKTKPREEQDNSTYRVVSVLTVLHQDWLNGKEYKCKVSNKALPKPIEKTISKAKGQPREPQVYTLPPSRDELTKNQVSLTCLVKGFYPSDIAVEWESNGQPENNYKTTPPVLDSDGSFFLYSKLTVDKSRWQQGNVFSCSVMHEALHNHYTQESLSLSP
light: not shown
notes: as for B2
On to B4, for which the Kd in assay [3] stood at 10 nM. This counts as double-digit nanomolar.

B5: IL6R-BP084/IL6R-L (antibody, human IgG1, kappa)
heavy: QVQLQESGPGLVKPSETLSLTCAVSGHSISHDHAWSWVRQPPGEGLEWIGFISYSGITNYNPSLQGRVTISRDNSKNTLYLQMNSLRAEDTAVYYCARSLARTTAMDYWGEGTLVTVSSASTKGPSVFPLAPSSKSTSGGTAALGCLVKDYFPEPVTVSWNSGALTSGVHTFPAVLQSSGLYSLSSVVTVPSSSLGTQTYICNVNHKPSNTKVDKKVEPKSCDKTHTCPPCPAPELLGGDSVFLFPPKPKDTLMISRTPEVTCVVVDVSHEDPEVKFNWYVDGVEVHNAKTKPREEQYNSTYRVVSVLTVLHQDWLNGKEYKCKMSNKALPKPIEKTISKAKGQPREPQVYTLPPSRDELTKNQVSLTCLVKGFYPSDIAVEWESNGQPENNYKTTPPVLDSDGSFFLYSKLTVDKSRWQQGNVFSCSVMHEALHNHYTQESLSLSP
light: not shown
notes: as for B2
As to B5, the Kd in assay [2] is 500 nM; in assay [3], 7 nM.

B6: IL6R-BP180/IL6R-L (antibody, human IgG1, kappa)
heavy: QVQLQESGPGLVKPSETLSLTCAVSGHSISHDHAWSWVRQPPGEGLEWIGFISYSGITNYNPSLQGRVTISRDNSKNTLYLQMNSLRAEDTAVYYCARSLARTTAMDYWGEGTLVTVSSASTKGPSVFPLAPSSKSTSGGTAALGCLVKDYFPEPVTVSWNSGALTSGVHTFPAVLQSSGLYSLSSVVTVPSSSLGTQTYICNVNHKPSNTKVDKKVEPKSCDKTHTCPPCPAPELLGDDSVFLFPPKPKDTLMISRTPEVTCVVVDVSHEDGEVKFNWYVDGVEVHNAKTKPREEQYNSTYRVVSVLTVLHQDWLNGKEYKCKVSNKALPKPIEKTISKAKGQPREPQVYTLPPSRDELTKNQVSLTCLVKGFYPSDIAVEWESNGQPENNYKTTPPVLDSDGSFFLYSKLTVDKSRWQQGNVFSCSVMHEALHNHYTQESLSLSP
light: not shown
notes: EU numbering; alterations on IL6R-B3; also called IL6R-BF180/IL6R-L; copies: 2 + 2
Regarding B6, the Kd in assay [5] is 70000 nM; in assay [3], 98 nM.

B7: IL6R-BP130/IL6R-L (antibody, human IgG1, kappa)
heavy: QVQLQESGPGLVKPSETLSLTCAVSGHSISHDHAWSWVRQPPGEGLEWIGFISYSGITNYNPSLQGRVTISRDNSKNTLYLQMNSLRAEDTAVYYCARSLARTTAMDYWGEGTLVTVSSASTKGPSVFPLAPSSKSTSGGTAALGCLVKDYFPEPVTVSWNSGALTSGVHTFPAVLQSSGLYSLSSVVTVPSSSLGTQTYICNVNHKPSNTKVDKKVEPKSCDKTHTCPPCPAPDLLGGDSVFLFPPKPKDTLMISRTPEVTCVVVDVSHEDPEVKFNWYVDGVEVHNAKTKPREEQYNSTYRVVSVLTVLHQDWLNGKEYKCKMSNKALPKPIEKTISKAKGQPREPQVYTLPPSRDELTKNQVSLTCLVKGFYPSDIAVEWESNGQPENNYKTTPPVLDSDGSFFLYSKLTVDKSRWQQGNVFSCSVMHEALHNHYTQESLSLSP
light: not shown
notes: as for B2
Molecule B7 displayed a Kd in assay [2] of 300 nM.

B8: IL6R-BP151/IL6R-L (antibody, human IgG1, kappa)
heavy: QVQLQESGPGLVKPSETLSLTCAVSGHSISHDHAWSWVRQPPGEGLEWIGFISYSGITNYNPSLQGRVTISRDNSKNTLYLQMNSLRAEDTAVYYCARSLARTTAMDYWGEGTLVTVSSASTKGPSVFPLAPSSKSTSGGTAALGCLVKDYFPEPVTVSWNSGALTSGVHTFPAVLQSSGLYSLSSVVTVPSSSLGTQTYICNVNHKPSNTKVDKKVEPKSCDKTHTCPPCPAPDYLGDDSVFLFPPKPKDTLMISRTPEVTCVVVDVSHEDPEVKFNWYVDGVEVHNAKTKPREEQYNSTYRVVSVLTVLHQDWLNGKEYKCKVSNAALPRPIEKTISKAKGQPREPQVYTLPPSRDELTKNQVSLTCLVKGFYPSDIAVEWESNGQPENNYKTTPPVLDSDGSFFLYSKLTVDKSRWQQGNVFSCSVMHEALHNHYTQESLSLSP
light: not shown
notes: as for B2
In turn, B8 came in with an equilibrium dissociation constant (Kd) in assay [2] of 40 nM. Against the preceding molecule, the Kd is about 7.5-fold lower.

B9: 6RC1IgG_012 (antibody, V domains shown)
VH: QVQLVQSGAEVKKPGASVKVSCKASGYTFTSYGISWVRQAPGQGLEWMGWISAYNGNTNYAQKLQGRVTMTTDTSTSTAYMELRSLRSDDTAVYYCARATYYYDSSAPAFDIWGQGTMVTVSS
VL: DIQMTQSPSSLSASVGDRVTITCRASQSIEDDLAWYQQKPGKAPKLLIYEASTLQSGVPSRFSGSGSGTDFTLTISSLQPEDFATYYCQQHDDSPLTFGQGTKVEIKR
B9: the binding result in assay [1] is on record as “binds”.

B10: 6RC1IgG_010 (antibody, V domains shown)
VH: QVQLVQSGAEVKKPGSSVKVSCKASGGTFSSYAISWVRQAPGQGLEWMGGIIPIFGTANYAQKFQGRVTITADESTSTAYMELSSLRSEDTAVYYCARAAFLEWPIWGSEYFQHWGQGTLVTVSS
VL: DIQMTQSPSSLSASVGDRVTITCRASQSIEDDLAWYQQKPGKAPKLLIYHASSLQSGVPSRFSGSGSGTDFTLTISSLQPEDFATYYCQQRDSYPLTFGQGTKVEIKR
Consider B10, for which the binding result in assay [1] was “binds”.

B11: 6RC1IgG_019 (antibody, V domains shown)
VH: EVQLVQSGAEVKKPGSSVKVSCKASGGTFSSYAISWVRQAPGQGLEWMGGIIPIFGTANYAQKFQGRVTITADESTSTAYMELSSLRSEDTAVYYCARDRGSGFNWGNYAFDIWGQGFSVTVSS
VL: DIQMTQSPSSLSASVGDRVTITCRASQSIEDDLAWYQQKPGKAPKLLIYEASNLQSGVPSRFSGSGSGTDFTLTISSLQPEDFATYYCQQYDRYPYTFGQGTKVEIKR
On to B11, for which, in assay [1], the binding result is given as “binds”.
